In PMC6650976, “Experimental Insight into the Structural and Functional Roles of the ‘Black’ and ‘Gray’ Clusters in Recoverin, a Calcium Binding Protein with Four EF-Hand Motifs” (Molecules, 2019):
Changes are numbered by the printed parent chain.

B1: recombinant wild type human recoverin (natural protein, UniProt P35243 1-200, looked up)
chain: MGNSKSGALSKEILEELQLNTKFSEEELCSWYQSFLKDCPTGRITQQQFQSIYAKFFPDTDPKAYAQHVFRSFDSNLDGTLDFKEYVIALHMTTAGKTNQKLEWAFSLYDVDGNGTISKNEVLEIVMAIFKMITPEDVKLLPDDENTPEKRAEKIWKYFGKNDDDKLTEKEFIEGTLANKEILRLIQFEPQKVKEKMKNA
modifications: myristoyl group at the N terminus (degree of myristoylation exceeded 89%)
notes: recoverin, human, UniProt P35243; cDNA from Y79 retinoblastoma cells, amplified with primers from the start codon to the stop codon, subcloned into pET-15b(+) by NcoI and XhoI; also called rWT; rWT recoverin; source: E. coli pET15b rec/pBB131/BL21(DE3)RILLC+, purified (phenyl-Sepharose, Toyopearl SuperQ-650M)
B2: human recoverin mutant Q46A (natural protein, UniProt P35243 1-200, looked up)
chain: B1 chain with Q46A
modifications: myristoylated (fraction of non-myristoylated forms did not exceed 16%)
notes: recoverin, human, UniProt P35243, N-terminal 'gray' cluster mutant; Parent construct as m1; source: E. coli, expressed and purified similarly to the rWT protein (phenyl-Sepharose, Toyopearl SuperQ-650M)
B3: human recoverin mutant K119A (natural protein, UniProt P35243 1-200, looked up)
chain: B1 chain with K119A
modifications: myristoylated (fraction of non-myristoylated forms did not exceed 16%)
notes: recoverin, human, UniProt P35243, C-terminal 'gray' cluster mutant; Parent construct as m1; source: E. coli, expressed and purified similarly to the rWT protein (phenyl-Sepharose, Toyopearl SuperQ-650M)
B4: human recoverin mutant V122A (natural protein, UniProt P35243 1-200, looked up)
chain: B1 chain with V122A
modifications: myristoylated (fraction of non-myristoylated forms did not exceed 16%)
notes: as for B3
B5: human recoverin mutant F106A (natural protein, UniProt P35243 1-200, looked up)
chain: B1 chain with F106A
modifications: myristoylated (fraction of non-myristoylated forms did not exceed 16%)
notes: recoverin, human, UniProt P35243, C-terminal 'black' cluster mutant; Parent construct as m1; source: E. coli, expressed and purified similarly to the rWT protein (phenyl-Sepharose, Toyopearl SuperQ-650M)
B6: human recoverin mutant F172A (natural protein, UniProt P35243 1-200, looked up)
chain: B1 chain with F172A
modifications: myristoylated (fraction of non-myristoylated forms did not exceed 16%)
notes: as for B5
B7: human recoverin mutant F35A (natural protein, UniProt P35243 1-200, looked up)
chain: B1 chain with F35A
modifications: myristoylated (fraction of non-myristoylated forms did not exceed 16%)
notes: recoverin, human, UniProt P35243, N-terminal 'black' cluster mutant; Parent construct as m1; source: E. coli, expressed and purified similarly to the rWT protein (phenyl-Sepharose, Toyopearl SuperQ-650M)
B8: human recoverin mutant Y86A (natural protein, UniProt P35243 1-200, looked up)
chain: B1 chain with Y86A
modifications: myristoylated (fraction of non-myristoylated forms did not exceed 16%)
notes: as for B7
B9: human recoverin mutant W156A (natural protein, UniProt P35243 1-200, looked up)
chain: B1 chain with W156A
modifications: myristoylated (fraction of non-myristoylated forms did not exceed 16%)
notes: as for B3
B10: human recoverin mutant E169A (natural protein, UniProt P35243 1-200, looked up)
chain: B1 chain with E169A
modifications: myristoylated (fraction of non-myristoylated forms did not exceed 16%)
notes: as for B5
B11: human recoverin mutant F70A (natural protein, UniProt P35243 1-200, looked up)
chain: B1 chain with F70A
modifications: myristoylated (fraction of non-myristoylated forms did not exceed 16%)
notes: as for B2
B12: human recoverin mutant F83A (natural protein, UniProt P35243 1-200, looked up)
chain: B1 chain with F83A
modifications: myristoylated (fraction of non-myristoylated forms did not exceed 16%)
notes: as for B7
B13: human recoverin mutant F49A (natural protein, UniProt P35243 1-200, looked up)
chain: B1 chain with F49A
modifications: myristoylated (fraction of non-myristoylated forms did not exceed 16%)
notes: as for B2

Target: the molecule itself
Experiment: cross-linking; apo-proteins: 0.02% glutaric aldehyde, 16 h, 20 °C, protein 1 mg/mL, 20 mM Tricine-KOH pH 7.4, 50 mM KCl, 1 mM DTT, 1 mM EDTA; SDS-PAGE, Coomassie, densitometry; self-association
Outline: (§1)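 Recombinant human recoverin and its modified forms were expressed in E. coli, purified, and stripped of metal ions by gel filtration. Crosslinking used 1.0 mg/mL protein with 0.02% glutaric aldehyde for 16 h at 20 °C in 20 mM Tricine-KOH pH 7.4, 50 mM KCl and 1 mM DTT, with EDTA, MgCl2/EGTA or CaCl2 added. Products were loaded at 5 µg/lane on 15% resolving SDS-PAGE. After Coomassie staining and scanning, each oligomer band was quantified in Quantity One as a percentage.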

| Protein | Dimer 50 kDa, % [%] | Monomer 20 kDa, % [%] |
| --- | --- | --- |
| B1 | 33.1 ± 1.1 | 66.9 ± 1.1 |
| B2 | 35.1 ± 1.8 | 64.9 ± 1.8 |
| B3 | 36.7 ± 0.8 | 63.3 ± 0.8 |
| B4 | 27 ± 1.2 | 73 ± 1.2 |
| B5 | 38 ± 0.3 | 62 ± 0.3 |
| B6 | 33.6 ± 2 | 66.4 ± 2 |
| B7 | 37.2 ± 0.5 | 62.8 ± 0.5 |
| B8 | 30.7 ± 3 | 69.3 ± 3 |
| B9 | 35.4 ± 0.8 | 64.6 ± 0.8 |
| B10 | 38.9 ± 1.2 | 61.1 ± 1.2 |
| B11 | 29.3 ± 1.7 | 70.7 ± 1.7 |
| B12 | 35.6 ± 0.8 | 64.4 ± 0.8 |
| B13 | 36.7 ± 1 | 63.3 ± 1 |

Target: the molecule itself
Experiment: cross-linking; Ca2+-loaded proteins: 0.02% glutaric aldehyde, 16 h, 20 °C, protein 1 mg/mL, 20 mM Tricine-KOH pH 7.4, 50 mM KCl, 1 mM DTT, 1 mM CaCl2; SDS-PAGE, Coomassie, densitometry; self-association
Outline: as §1

| Protein | Dimer 50 kDa, % [%] | Monomer 20 kDa, % [%] | Multimer 100–250 kDa, % [%] | Trimer 70–100 kDa, % [%] |
| --- | --- | --- | --- | --- |
| B1 | 30.9 ± 0.4 | 15.5 ± 0.6 | 21.55 ± 0.09 | 32 ± 1.1 |
| B2 | 27.3 ± 1.5 | 31.9 ± 1.9 | 18.4 ± 0.6 | 22.3 ± 1 |
| B3 | 24.4 ± 0.6 | 19.5 ± 0.4 | 31.38 ± 0.05 | 24.7 ± 0.2 |
| B4 | 27.1 ± 1.3 | 15.8 ± 0.2 | 26.7 ± 2.1 | 30.3 ± 0.6 |
| B5 | 27.11 ± 0.08 | 17.9 ± 2.1 | 25 ± 0.8 | 30 ± 1.4 |
| B6 | 29.3 ± 0.2 | 22 ± 0.9 | 20 ± 0.3 | 28.8 ± 0.8 |
| B7 | 31.7 ± 0.3 | 37.4 ± 3.6 | 13.2 ± 3.3 | 17.78 ± 0.07 |
| B8 | 28.5 ± 1.4 | 35.8 ± 2.7 | 14.2 ± 0.6 | 21.5 ± 0.7 |
| B9 | 25 ± 1.1 | 20.4 ± 0.7 | 29.8 ± 0.9 | 24.8 ± 1 |
| B10 | 27 ± 0.3 | 16.1 ± 1.5 | 27.2 ± 0.9 | 29.6 ± 0.3 |
| B11 | 29.3 ± 1.1 | 40.1 ± 1.8 | 11.4 ± 0.2 | 19.1 ± 0.5 |
| B12 | 28.7 ± 0.8 | 38.4 ± 1.4 | 13.2 ± 0.3 | 19.7 ± 0.4 |
| B13 | 25.5 ± 0.5 | 30.6 ± 1.6 | 21.08 ± 0.09 | 22.8 ± 1.3 |

Target: the molecule itself
Experiment: cross-linking; Mg2+-loaded proteins: 0.02% glutaric aldehyde, 16 h, 20 °C, protein 1 mg/mL, 20 mM Tricine-KOH pH 7.4, 50 mM KCl, 1 mM DTT, 1 mM MgCl2, 1 mM EGTA; SDS-PAGE, Coomassie, densitometry; self-association
Outline: as §1

| Protein | Dimer 50 kDa, % [%] | Monomer 20 kDa, % [%] |
| --- | --- | --- |
| B1 | 31.55 ± 0.09 | 68.45 ± 0.09 |
| B2 | 30.2 ± 0.5 | 69.8 ± 0.5 |
| B3 | 46.4 ± 5 | 53.6 ± 5 |
| B4 | 35.3 ± 0.9 | 64.7 ± 0.9 |
| B5 | 35.4 ± 1 | 64.6 ± 1 |
| B6 | 36.6 ± 0.7 | 63.4 ± 0.7 |
| B7 | 30.9 ± 1.9 | 69.1 ± 1.9 |
| B8 | 33.9 ± 0.2 | 66.1 ± 0.2 |
| B9 | 36.8 ± 0.2 | 63.2 ± 0.2 |
| B10 | 33.7 ± 0.5 | 66.3 ± 0.5 |
| B11 | 26.9 ± 0.9 | 73.1 ± 0.9 |
| B12 | 33.8 ± 1 | 66.2 ± 1 |
| B13 | 32.1 ± 0.5 | 67.9 ± 0.5 |
